In patent publication US20230356187A1:

Legend:
[1] = molecular target: purified antibody (KBIO, Korea); experiment: 1 ml resin column; purified antibody bound, eluted and measured after 15 cycles of 0.3 M NaOH (15 min each)
[2] = molecular target: purified antibody (KBIO, Korea); experiment: 1 ml resin column; purified antibody bound, eluted and measured after 15 cycles of 0.3 M NaOH; reference Capto L

B1: variant protein 4mBF (mBF tetramer) (designed binder)
chain: MPKEEVTIKANLIFADGKTQTAEFKGTFGEATAEAYRYADLLAPENGKYTVDVADKGYTLNIKFAGKEKTPEEMPKEEVTIKANLIFADGKTQTAEFKGTFGEATAEAYRYADLLAPENGKYTVDVADKGYTLNIKFAGKEKTPEEMPKEEVTIKANLIFADGKTQTAEFKGTFGEATAEAYRYADLLAPENGKYTVDVADKGYTLNIKFAGKEKTPEEMPKEEVTIKANLIFADGKTQTAEFKGTFGEATAEAYRYADLLAPENGKYTVDVADKGYTLNIKFAGKEKTPEE
B1 showed a residual activity (antibody recovered after 15 alkali treatments, relative to the initial binding) [1] of 43.5% and a residual activity relative to Cytiva's product (Capto L) [2] of 1.4 times.
